Results on 1 molecule are retold here after PMC10080908 (BMC Biology, 2023).

One assay has as its target T1, UBE2D2 (human, UniProt P62837 1-147).
T1 construct: UBE2D2 without GST; probably released from GST-UBE2D2 by GST-3C protease as told in general for the PGEX4T3-3C constructs; also called recombinant UBE2D2; source: recombinant
Put plainly: pull-down; in vitro: GST-RING domains on beads with UBE2D2, with or without UBXN7-UAS; Coomassie staining. As to conditions: both partners purified.

Assay [1] deals with T2, UBXN7-UAS recombinant protein (human, UniProt O94888 94-284).
T2 construct: UAS domain of human UBXN7 (aa 94-284); also called UAS domain; source: E. coli BL21, purified (Glutathione Sepharose, released by GST-3C protease)
T2 sequence (looked up): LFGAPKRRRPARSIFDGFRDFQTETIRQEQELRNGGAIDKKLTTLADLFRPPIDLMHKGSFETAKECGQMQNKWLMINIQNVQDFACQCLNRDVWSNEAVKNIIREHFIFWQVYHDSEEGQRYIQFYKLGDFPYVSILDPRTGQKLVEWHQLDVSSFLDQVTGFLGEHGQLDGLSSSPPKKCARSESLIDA
The description is as above. As to conditions: both partners purified.

B1: GST-TOPORS-RING (domain or fragment, human, UniProt Q9NS56 68-176, looked up)
chain: MASAAKEFKMDNFSPKAGTSKLQQTVPADASPDSKCPICLDRFDNVSYLDRCLHKFCFRCVQEWSKNKAECPLCKQPFDSIFHSVRAEDDFKEYVLRPSYNGSFVTPDR
notes: human TOPORS-RING (aa 68-176); the methods tell its cloning into p3xFlag-CMV-10 only, not into the GST vector; also called minimal RING domain of TOPORS; TOPORS RING domain; source: recombinant, on Glutathione Sepharose
Regarding B1, the binding result (with UBE2D2; in assay [1]) was “binds” throughout.
